Target: T1, B7-H3 of cynomolgus monkeys (Macaca fascicularis, UniProt A0A7N9CYV2)
T1 sequence (A0A7N9CYV2 29-534): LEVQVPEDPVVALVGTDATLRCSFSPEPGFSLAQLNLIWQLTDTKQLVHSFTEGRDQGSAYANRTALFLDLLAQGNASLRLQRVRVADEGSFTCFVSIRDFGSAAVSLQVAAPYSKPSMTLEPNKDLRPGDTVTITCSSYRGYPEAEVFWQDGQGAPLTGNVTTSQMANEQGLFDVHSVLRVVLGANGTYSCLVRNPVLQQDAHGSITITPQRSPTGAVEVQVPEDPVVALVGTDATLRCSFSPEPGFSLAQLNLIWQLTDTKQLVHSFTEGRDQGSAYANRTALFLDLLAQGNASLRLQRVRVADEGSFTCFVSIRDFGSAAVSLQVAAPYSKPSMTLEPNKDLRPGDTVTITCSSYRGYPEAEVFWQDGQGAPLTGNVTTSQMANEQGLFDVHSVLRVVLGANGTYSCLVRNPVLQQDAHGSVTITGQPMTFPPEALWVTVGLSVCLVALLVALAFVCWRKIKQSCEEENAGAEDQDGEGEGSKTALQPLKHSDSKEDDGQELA
Assay: Cross-reactivity of anti-B7-H3 antibody
Format: binding

cross-reactivity with B7-H3 of cynomolgus monkeys: cross-reactive
B1: mAb-A: anti-B7-H3 antibody isolated from hybridoma cells; murine VL SEQ ID NO:15, VH SEQ ID NO:16 (antibody, V domains shown)
VH: EVQQVESGGDLVKPGGSLKLSCAASGFTFSSYGMSWVRQTPDKRLEWVATINSGGSNTYYPDSLKGRFTISRDNAKNTLYLQMRSLKSEDTAMYYCARHDGGAMDYWGQGTSVTVSS
VL: DIQMTQSPASLSVSVGETVTITCRASESIYSYLAWYQQKQGKSPQLLVYNTKTLPEGVPSRFSGSGSGTQFSLKINSLQPEDFGRYYCQHHYGTPPWTFGGGTNLEIK
modifications: Synthetic: amino acid sequence of the VH Domain of anti-B7-H3 mAb-A; Synthetic: amino acid sequence of the VL Domain of the murine anti-B7-H3 antibody mAb-A
